Among the data in article doi:10.1101/477745 are luminescence relative to the control (x above the control) values, retold here.

This test deals with Era fused to SB (small bit of luciferase) (S. aureus) (UniProt Q2FGF6). Put plainly: split reporter.
Sequence of Era fused to SB (small bit of luciferase) (S. aureus) (Q2FGF6 whole entry, the tested form may be a part): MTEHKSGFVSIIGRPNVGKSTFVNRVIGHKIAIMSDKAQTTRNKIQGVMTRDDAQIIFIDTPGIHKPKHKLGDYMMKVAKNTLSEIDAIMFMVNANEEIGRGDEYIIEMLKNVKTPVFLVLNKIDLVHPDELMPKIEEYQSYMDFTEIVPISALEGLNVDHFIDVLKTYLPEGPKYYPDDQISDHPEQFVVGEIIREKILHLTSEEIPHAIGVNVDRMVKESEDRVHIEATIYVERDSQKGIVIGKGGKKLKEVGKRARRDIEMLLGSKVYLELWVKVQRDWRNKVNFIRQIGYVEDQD

Sequence of YbeY (split luciferase fusion) (natural protein) (A5IT98 whole entry, the tested form may be a part): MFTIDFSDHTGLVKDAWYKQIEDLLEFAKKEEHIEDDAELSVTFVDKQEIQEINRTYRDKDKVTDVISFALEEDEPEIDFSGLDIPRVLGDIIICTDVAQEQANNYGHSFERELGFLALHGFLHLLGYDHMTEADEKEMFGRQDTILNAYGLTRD

Regarding “YbeY (split luciferase fusion) (natural protein)”, the luminescence relative to the control (x above the control) is 2.
